Experiments:
[1] = biological target: TfR-IgA Fc fusion protein, Leu256Ala mutant (Homo sapiens (Human)) (UniProt P01876); assay: flow cytometry, FcαRI-Ig on CHOP cells expressing TfR-IgA Fc fusion
[2] = biological target: TfR-IgA Fc fusion protein, Leu257Ala mutant (Homo sapiens (Human)) (UniProt P01876); assay: as above
[3] = biological target: TfR-IgA Fc fusion protein, Leu258Ala mutant (Homo sapiens (Human)) (UniProt P01876); assay: as above
[4] = biological target: human serum IgA (human); assay: BIAcore, human serum IgA on CM5 chip, SSL7 mutant as analyte
[5] = biological target: TfR-IgA Fc fusion protein, Asn316Ala mutant (Homo sapiens (Human)) (UniProt P01876); assay: flow cytometry, biotinylated rSSL7 on CHOP cells expressing TfR-IgA Fc fusion
Chain of TfR-IgA Fc fusion protein, Asn316Ala mutant (Homo sapiens (Human)) (P01876 123-331 N197A limits assumed): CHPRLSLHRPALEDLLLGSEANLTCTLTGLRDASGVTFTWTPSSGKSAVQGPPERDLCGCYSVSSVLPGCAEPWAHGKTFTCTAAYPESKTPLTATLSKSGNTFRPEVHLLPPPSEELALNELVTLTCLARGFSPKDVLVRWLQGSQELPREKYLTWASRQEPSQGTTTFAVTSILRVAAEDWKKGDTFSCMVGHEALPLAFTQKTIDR

[6] = biological target: TfR-IgA Fc fusion protein, His317Ala mutant (Homo sapiens (Human)) (UniProt P01876); assay: as above
Chain of TfR-IgA Fc fusion protein, His317Ala mutant (Homo sapiens (Human)) (P01876 123-331 H198A limits assumed): as the sequence (P01876 123-331 N197A limits assumed) above, with A75N, H76A counted along it

[7] = biological target: TfR-IgA Fc fusion protein, Leu256Ala mutant (Homo sapiens (Human)) (UniProt P01876); assay: as above
[8] = biological target: TfR-IgA Fc fusion protein, Leu257Ala mutant (Homo sapiens (Human)) (UniProt P01876); assay: as above
[9] = biological target: TfR-IgA Fc fusion protein, Leu258Ala mutant (Homo sapiens (Human)) (UniProt P01876); assay: as above
[10] = biological target: human serum complement factor C5 (human) (UniProt P01031); assay: cell-based or functional assay
Chain of human serum complement factor C5 (human) (P01031 19-673 limits assumed, chain 1 of 2): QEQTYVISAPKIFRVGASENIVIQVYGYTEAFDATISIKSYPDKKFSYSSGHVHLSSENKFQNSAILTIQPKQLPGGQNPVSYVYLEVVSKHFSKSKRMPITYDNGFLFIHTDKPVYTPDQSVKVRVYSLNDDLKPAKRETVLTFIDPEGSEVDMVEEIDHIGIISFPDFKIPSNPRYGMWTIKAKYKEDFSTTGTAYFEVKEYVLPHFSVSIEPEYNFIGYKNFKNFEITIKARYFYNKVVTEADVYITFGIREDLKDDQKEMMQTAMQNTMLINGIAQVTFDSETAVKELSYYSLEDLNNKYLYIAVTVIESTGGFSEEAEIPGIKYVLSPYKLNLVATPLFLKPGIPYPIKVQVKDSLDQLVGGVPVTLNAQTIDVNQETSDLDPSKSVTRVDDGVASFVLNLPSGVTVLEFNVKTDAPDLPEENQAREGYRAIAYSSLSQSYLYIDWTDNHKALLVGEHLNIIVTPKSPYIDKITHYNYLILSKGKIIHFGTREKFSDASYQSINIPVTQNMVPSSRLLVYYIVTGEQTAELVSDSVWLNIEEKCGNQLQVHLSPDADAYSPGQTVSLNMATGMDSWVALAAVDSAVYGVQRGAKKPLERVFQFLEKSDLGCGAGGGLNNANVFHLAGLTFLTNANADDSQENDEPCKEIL
Chain of human serum complement factor C5 (human) (P01031 678-1676 limits assumed, chain 2 of 2): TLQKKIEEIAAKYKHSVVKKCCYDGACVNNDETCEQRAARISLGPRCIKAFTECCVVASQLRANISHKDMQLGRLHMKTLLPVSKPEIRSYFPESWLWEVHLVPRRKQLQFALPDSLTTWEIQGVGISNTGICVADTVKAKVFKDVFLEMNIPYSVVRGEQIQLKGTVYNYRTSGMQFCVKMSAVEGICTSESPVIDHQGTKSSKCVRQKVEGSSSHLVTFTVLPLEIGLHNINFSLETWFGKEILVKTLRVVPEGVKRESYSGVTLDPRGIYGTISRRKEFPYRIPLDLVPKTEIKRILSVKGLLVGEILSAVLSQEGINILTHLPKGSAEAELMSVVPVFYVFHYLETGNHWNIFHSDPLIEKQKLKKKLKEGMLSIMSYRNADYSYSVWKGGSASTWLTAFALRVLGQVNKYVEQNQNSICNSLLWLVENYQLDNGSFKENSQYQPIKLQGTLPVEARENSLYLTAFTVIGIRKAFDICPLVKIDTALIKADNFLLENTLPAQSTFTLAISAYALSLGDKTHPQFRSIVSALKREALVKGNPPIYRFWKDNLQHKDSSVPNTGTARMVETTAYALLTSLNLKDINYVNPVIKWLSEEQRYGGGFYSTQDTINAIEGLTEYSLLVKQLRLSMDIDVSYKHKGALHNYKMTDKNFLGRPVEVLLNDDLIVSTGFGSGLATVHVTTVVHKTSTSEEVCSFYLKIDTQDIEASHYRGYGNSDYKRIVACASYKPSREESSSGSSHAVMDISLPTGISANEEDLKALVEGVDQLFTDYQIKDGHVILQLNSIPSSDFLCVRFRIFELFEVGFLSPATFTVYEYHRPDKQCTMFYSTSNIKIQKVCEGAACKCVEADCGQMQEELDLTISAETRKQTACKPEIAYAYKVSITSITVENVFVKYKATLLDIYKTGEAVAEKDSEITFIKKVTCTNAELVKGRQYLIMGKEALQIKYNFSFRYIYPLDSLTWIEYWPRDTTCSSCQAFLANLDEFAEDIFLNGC

Chain of TfR-IgA Fc fusion protein, Leu258Ala mutant (Homo sapiens (Human)) (P01876 123-331 L139A limits assumed): as the sequence (P01876 123-331 N197A limits assumed) above, with L17A, A75N counted along it
Chain of TfR-IgA Fc fusion protein, Leu257Ala mutant (Homo sapiens (Human)) (P01876 123-331 L138A limits assumed): as the sequence (P01876 123-331 N197A limits assumed) above, with L16A, A75N counted along it
Chain of TfR-IgA Fc fusion protein, Leu256Ala mutant (Homo sapiens (Human)) (P01876 123-331 L137A limits assumed): as the sequence (P01876 123-331 N197A limits assumed) above, with L15A, A75N counted along it

| Substance | Change (fold in KD against SSL7 wild-type) [4] [fold] | Kd [4] [nM] | further results |
| --- | --- | --- | --- |
| FcαRI-Ig (from UniProt P24071 22-227) (Fc fusion) | – | – | fold reduction of binding against WT IgA Fc [1]: 3.3 fold; fold reduction of binding against WT IgA Fc [2]: 2.3 fold; fold reduction of binding against WT IgA Fc [3]: > 100 fold |
| SSL7 mutant P82A | 35 | 39 | – |
| SSL7 mutant N83A | 4 | 4 | – |
| recombinant SSL7 (GL1 S. aureus Greenlane), wild type | – | – | fold reduction of binding against WT IgA Fc [5]: 1.8 fold; fold reduction of binding against WT IgA Fc [6]: 1.2 fold; fold reduction of binding against WT IgA Fc [7]: 11.5 fold; fold reduction of binding against WT IgA Fc [8]: 15.4 fold; fold reduction of binding against WT IgA Fc [9]: 6.5 fold |
| SSL7 mutant L79A | 91 | 100 | – |
| SSL7 mutant N38T | 35 | 38 | – |
| SSL7 wild-type (haemolysis assay of FIG. 9) | – | – | haemolysis at 2 µM, % of the maximum lysis [10]: 10%; inhibition of haemolysis at 2 µM [10]: 90% |
| SSL7 mutant R44A | 3.2 | 3.6 | – |

Reference: patent US20110027907A1
